{
  "source": "paper PMC10892425",
  "key": {"[1]": {"test_system": "VV-GMCSF-Lact intact vaccinia virus particles (surface protein target not identified) (Vaccinia virus, LIVP strain (recombinant VV-GMCSF-Lact))", "test": "MST"}, "[2]": {"test_system": "VV-GMCSF-Lact intact vaccinia virus particles (surface protein target not identified) (Vaccinia virus, LIVP strain (recombinant VV-GMCSF-Lact))", "test": "flow cytometry"}},
  "data": [
    {"sequence": "GTAACCAGCCATCACCCTATTATCTCATTATCTCGTTTTCCCTATGCGGCATAGG [NV14t_56 (8NV37_14 variant 2_12-67)]", "values": [
      {"measurement": "K half", "setting": "[1]", "result": "1.49e+09", "unit": "PFU/mL"},
      {"measurement": "Kd", "setting": "[2]", "result": 353, "unit": "nM"}
    ]}
  ]
}
